Source: publication PMC4154131, “Molecular pathogenesis of Spondylocheirodysplastic Ehlers-Danlos syndrome caused by mutant ZIP13 proteins” (EMBO Molecular Medicine, 2014)

How the values were obtained:
[1] = biological target: N-terminally 3xFLAG-tagged G64D mutant ZIP13 (human); test: native gel or EMSA; blue native-PAGE of lysates of 293T cells expressing F-WT or F-G64D
[2] = biological target: the molecule itself; test: as above

| stoichiometry N [1] | Molecule | stoichiometry N [2] |
| --- | --- | --- |
| 2 | N-terminally 3xFLAG-tagged G64D mutant ZIP13 (natural protein) | – |
| – | N-terminally 3xFLAG-tagged wild-type ZIP13 (natural protein, human, UniProt Q96H72 1-371, looked up, ZIP13 (SLC39A13) zinc transporter, human, wild type; construct as previously described (Fukada et al, 2008); The 3xFLAG precedes the signal peptide; also called F-WT; F-ZIP13; source: 293T, transfected, in lysate; not shown: 3xFLAG, N-terminal, kept) MPGCPCPGCGMAGPRLLFLTALALELLERAGGSQPALRSRGTATACRLDNKESESWGALLSGERLDTWICSLLGSLMVGLSGVFPLLVIPLEMGTMLRSEAGAWRLKQLLSFALGGLLGNVFLHLLPEAWAYTCSASPGGEGQSLQQQQQLGLWVIAGILTFLALEKMFLDSKEEGTSQAPNKDPTAAAAALNGGHCLAQPAAEPGLGAVVRSIKVSGYLNLLANTIDNFTHGLAVAASFLVSKKIGLLTTMAILLHEIPHEVGDFAILLRAGFDRWSAAKLQLSTALGGLLGAGFAICTQSPKGVVGCSPAAEETAAWVLPFTSGGFLYIALVNVLPDLLEEEDPWRSLQQLLLLCAGIVVMVLFSLFVD | 2 |
